Measured values reported in article doi:10.1101/2023.02.23.529646 (bioRxiv, 2023).
Positions count from the first letter of the chain named.

Tests used:
ACAD9WT (res. 38-621) [1] = target: T1, ACAD9WT (res. 38-621) (human, UniProt Q9H845 38-621); assay: mass photometry
T1 sequence: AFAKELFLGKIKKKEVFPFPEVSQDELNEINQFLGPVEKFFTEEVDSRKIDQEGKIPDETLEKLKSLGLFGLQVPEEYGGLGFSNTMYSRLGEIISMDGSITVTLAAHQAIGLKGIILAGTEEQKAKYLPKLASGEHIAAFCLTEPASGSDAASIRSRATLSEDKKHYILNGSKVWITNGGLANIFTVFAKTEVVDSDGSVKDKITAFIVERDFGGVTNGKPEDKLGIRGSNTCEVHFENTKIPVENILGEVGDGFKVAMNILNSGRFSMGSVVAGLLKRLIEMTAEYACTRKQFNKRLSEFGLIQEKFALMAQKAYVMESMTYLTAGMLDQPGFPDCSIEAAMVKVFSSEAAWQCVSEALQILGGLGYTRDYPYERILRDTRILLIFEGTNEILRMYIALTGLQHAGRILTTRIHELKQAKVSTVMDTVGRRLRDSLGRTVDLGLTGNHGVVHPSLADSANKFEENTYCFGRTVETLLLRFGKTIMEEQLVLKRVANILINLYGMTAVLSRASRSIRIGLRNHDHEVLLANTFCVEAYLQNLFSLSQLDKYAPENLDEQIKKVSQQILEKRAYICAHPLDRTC

ACAD9_(A184S/SR194TS) = target: T2, ACAD9_(A184S/SR194TS) (human, UniProt Q9H845 38-621, A184S | SR194TS); assay: mass photometry
T2 sequence: T1 sequence with A147S, S157T, R158S

VLCAD_(ACAD9) = target: T3, VLCAD_(ACAD9) (human, UniProt P49748 72-655, 437MGGMGFM443 to 437LGGLGYT443); assay: mass photometry
T3 sequence: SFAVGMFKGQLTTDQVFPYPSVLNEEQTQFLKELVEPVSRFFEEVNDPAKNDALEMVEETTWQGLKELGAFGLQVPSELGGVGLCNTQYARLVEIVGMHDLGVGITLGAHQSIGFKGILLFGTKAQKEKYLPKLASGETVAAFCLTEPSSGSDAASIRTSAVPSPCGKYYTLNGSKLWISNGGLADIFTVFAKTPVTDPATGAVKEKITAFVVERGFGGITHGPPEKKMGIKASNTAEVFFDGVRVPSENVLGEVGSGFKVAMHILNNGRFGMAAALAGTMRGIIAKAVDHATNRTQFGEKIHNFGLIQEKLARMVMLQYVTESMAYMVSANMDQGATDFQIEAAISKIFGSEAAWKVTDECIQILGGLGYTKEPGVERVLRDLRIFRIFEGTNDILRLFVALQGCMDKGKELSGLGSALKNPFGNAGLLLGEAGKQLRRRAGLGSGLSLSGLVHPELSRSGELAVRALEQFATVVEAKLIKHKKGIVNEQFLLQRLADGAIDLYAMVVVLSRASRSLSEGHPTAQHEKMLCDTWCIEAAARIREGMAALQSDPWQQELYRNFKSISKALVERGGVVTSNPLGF

ACAD9WT (res. 38-621) [2] = target: T1, ACAD9WT (res. 38-621); assay: cryo-EM structure

B1: ECSIT_(CTER) (residues 221-431) (domain or fragment)
chain: QDPVELAMFGLRHMEPDLSARVTIYQVPLPKDSTGAADPPQPHIVGIQSPDQQAALARHNPARPVFVEGPFSLWLRNKCVYYHILRADLLPPEEREVEETPEEWNLYYPMQLDLEYVRSGWDNYEFDINEVEEGPVFAMCMAGAHDQATMAKWIQGLQETNPTLAQIPVVFRLAGSTRELQTSSAGLEEPPLPEDHQEEDDNLQRQQQGQS
Q: How did the “stoichiometry N” value (ACAD9WT (res. 38-621) [1]) turn out when B1 was run?
A: 2 ECSIT_(CTER) monomers per ACAD9 dimer

Q: Does B1 bind (ACAD9_(A184S/SR194TS))?
A: binds

Q: Does B1 bind (VLCAD_(ACAD9))?
A: binds

Q: And the “stoichiometry N” value (ACAD9WT (res. 38-621) [2])?
A: 1 ECSIT_(CTER) per ACAD9 protomer
